Measured values as given in a protein production outcome set (Wang et al. 2014).

Experiment: label from the status in PepcDB records

Sequence | protein production
MNATAPGTPPNPPQSTGTLMPLVSFRRHRRIALMVMAVVVVFGAGFAWVKGKAVYSATAVLYVAPHFVNILKESKELDIPAYDQFIEHQALTVPRYDILLESLAKLGDRRYVWQKKKESDRRAAERLQAALEVKPVKDSYLITVTLESTTPDHLDELVNTIVDTYLEKSRESDSFFARNVRLTSLRERRGQIQGEIDAKLARRTEIAQELSVTTFSEQLASPYDKLLIESQNALAMAQRNRLASEAALALFEDRKSGQDAIAAAAFDTIQKDPGLISLKGSLYKRRSELLQQASGLDPRHPLKIQIDREFKEIDEELNRTVAKLTEQVAKSFIDQRKADVKRDRQIEQELSLQLESFRQKASWFAALYNEALSLSDEIERSRKQLDMIDERIEFFELESRAPGFVRVETYARPPELPVKGGRKKLFAVVLVLALALGAATPVGLDMLDQRIRTTGQVAKIIGHRPVAWFVEHHGSPDLKRMSADQLRRLAIAVNREREMHGSRLVSLTSVKPEAGVTDLALDLAAELGVLGVPTVVVEADPLRPDPRYRGGSAQPGLADLLAGSGEVTAAVVPAAGGLPARLGTGTAPGRQLFAYPALRRCLDELKAAYDLVLIDAPPLLLSADAEYLVEIADVTLLLVGAGQVKPGELRRAAGILEKIDPKAVGFVVTRLEVYRGGGYYAKLAEEFALAASHENGQKHTSRRLEG | failed
MVVRTWRSMQERYNLIGSKCKTCGTVYFPARSVCPECRRKGELEDYKLNGKGKVYTYSVVYAAPKDFEKQSPYVIGIVELEEGTKITSQIDCEPEEVKIGMPVEATFRKIREDGCDGVISYGYKFVPTEQLEHHHHHH | failed
MGFIMEFAENLVLRLMENPEERDRKAREHIYEMHERCKKIKEMWALPIRPYGFWTFERHNAQLRWDPQISQVAGRRDPYDDLLEDNYTPPSSSSSSSD | failed
MIVGRDGVGVVEHAEQGPRIAVAVVTMGNRPAEVDALLASVAKQDLPPARIVIVGNGCPLPEFARRLDLPGEVTGIEVDENLGCPGGRNVALAKLREFGDVDVVVELDDDGLLVDADVLRRVRDLYAADPRLGIVGFRIADENGETQRRHVPRVGKSDPLRGGPVTGFLGGGHALSMAMLARTGDWPAEFFFAHEETDLAWRATDAGWTILYAPELLLQHPKTSPARHAIYHRVTARNRVWLARRRLPLPLIPVHLGIWIAVTLVRTRSAGGLRAWFGGFMEGVRTSGGERRPMRWRTVWRLTRLGRPPVILEHHHHHH | failed
MTLAVTAQPALAADRGHSVPLRIATYNIHAGAGSDGVFDLDRQAAALRALDADVIGLQEVDVHWGARSQGLDVAGELARRLGMRVSFAPIYSLDPVTAGEPRREYGVAVLSRFPVRSATNHEITRLSTQDENPLPAPAPGFGEVTLKVRGVPVQVFVTHLDYRADPAVRRAQVADTRRIMARERAELPGAHQFLLGDFNAEPAAPELAPLWKELSDAGAGTPATYPAQAPVKRIDYVTAGKDVRIRRTAVPEEPAASDHRPVVADVSLPRRTPGRD | failed
LESSMNKFHALFDSVMDACVIIDKRGVIKECNAALQTLLGVEDKTALVGTSLTQFHLADTFMGSAVQIAQSVEDVLKQGLLKFEADITDSQGQSIPAEVTLKSIELNTERFVLATYHNLAERRLVDRLIRHERNLLKNVLGMSPIGVWVCVNGTCRYVNAQMTLM | failed
MRSKFVLFMLMSLLTGSLMANSEAQIYGYVEKATLIDQNLTLSAKLDTGAKSASLHAVNITEIEKKGIPYLRFTVPTKTGDYSFEGEYVGKVKIKVRSSETNPGLLRTTPIKRPVVLLNIKLGDKVRTIKVNLTNRKRFLYPLLLGRDAIIDFNGAVDPALTFTTKSKSPVNNEK | failed
WILWSLTKISNHQEINEIIDQILQLTSDVFAADYTSVSFINNQQIARTISYYKFGKKEENISFSLINTPCAKVIQTKAICYFNDVQKQFPNDKLLKKMKINTYLAGPITNTQDEVIGIMTILCKRKVEFDTLNNTLFGLFLSRINSEIERLINLRKLE | failed
MKSYMTQRLDEYRDGNEDKGRLLVSCPDQPGIVSAVSAFLFEHGANIIESNQYTTDPEGGRFFLRIEFDCAGIREKKSSLQAAFASVAEKFDMTWSLTLASELKRVAIFVSKNLHCLHELIWEWQTGNLMAEIAVVISNHEEARELVERLNIPFHYMKANKDIRAEVEKKQLELLEQYDVDVIVLARYMQILTPDFVSAHPNRIINIHHSFLPAFIGANPYKRAYERGVKLIGATSHYVTNDLDEGPIIEQDIKRVDHRDNAETLKNIGRTIERSVLARAVKWHLEDRVIVHENK | not failed
MDEEIDTRKINNSFLRDHNYATEADIISTVEFNPTGELLATGDKGGRVVVFQREQESKNQPHRRGEYNVYSTLLKDWIMLIKTHRKNFRRKGKQLGFKCGSIY | failed
MDRADLRIAVLMGTKDGAPFIDEQLQSLLAQSHPLIDLWISDDGSVDGTVPIIEAWKSRWTKGRVTLVQGPREGFAANFRSMILDRRIDADFYAFSDQDDVWEPDRLESAVQWMQAFGAEPPLMFCSRTATMTETGSLAGHSPLFRRPPSFRNALVQSIAGGNTILLNRAARDLLARASARTGFVSHDWWAYLVVTGAGGVVHYDPRPLVRYRQHAANLVGANVSWAARVSRLGRLFKGEFADWTDLNLAGLAVNRDLLTPDAATCLDLFASGRQGSLFQRLRTLLVSGVYRQTLAGTLGLYLAFVLGRILEHHHHHH | failed
MSRSPRYTNFILIAVMLGALLPAAGCLEEHEVASAGLSSATMSVNLTYYTEQLPPYNYMENSMLQGLSVDLLEEITEKMGKKVTREEVHLVPWTEGYQAALNGNNTVLFSMARSPEREQFFKWAGPIYSDRYVLFAKRDRGITIKNPEDLKGYRIGVIADDIATRQLLDIGVNQSQIAPESNVSAIIAGLENGDIDLWACPEDAGRYFTEELTGSYYSYTVVYQLETQDLYYAFSKDVPDSVVQSFQQALDAVKREKDVEGISTYDRILGKYIPSIGLARLNYLTEEWAPFNYQEDGNVTGISVEILEAVFKNIGVNRSRADVRIVPLAEGFQIAQNNTSTVLFSIVRTPEREPFYKWAGPFTRANFVLYAPVSSNITISSPKDLNQYRIGAIRASIENDLLASQGVNESQIINGQTPEDLFRMLEEGQIDLWATGDLAGRHQMLRTAEDPNAYEIVYTLSENDFYYIFSKDVPDTLVSAFQQALDTVRDQRDEQGVSDYERIIYRNLGVGCAPQTFTDDTVMELVNTTVKAIEKNASDTFRRINAGEAPYRDSKDPGLYAFVYDTNLTIVAHADNIQLVGTNFRGKTDVTGKPFRDEILEGALKNGTGSVDYVYMHPVQTNLYYKTAYYRLTRGSDGNSYIVCSGNYKLCQNQSEAMPANNSTASPEELAAFVEKAFEYAHENGQEVALREFNNQAGQFVDGKFYIFAYDTNGTTLALPFQPEIIGTKRWNVTDTNGTLFIQDLVDTAQSGGGFVRYFYADPADNFTVKQKLSYVMMVNQSWIIGSGIYDPQKDSAIVRAGTDPQVRENLKSFVGEAIEYANTNGKDTAIEEFNDRNGAFVRGNLYIYAFDYNGTTLALPYQAQLIGTNLSELQDPYGVNYTKVEIFMAQQGGGFLFYHYYNPARNMTLEPKMSYVQKVDDTWWLGAGTYTEDLNRITKRD | failed
MDMDEKDVVETEEESFAELFEKSNSETQRLRPGSKVEGKILKIGAEWVFIDIGKKGEGVMERKELQDAEGNLTVAEGDTITAWFTGSVRNEMRFTTKLGAGAAANAQLEEAHRSGIPVEGFVVKEIKGGFEVRLSGTTRAFCPFSQISLRRAENPAEFVGKHLLFKVTEYSERGRNIVLSHRQILEEEQRVKREALKEVLLEGMTVTGTVTRLADFGAFVDLGGVDGLIPVSEVGWTRVKHVRDVLSVGEQVSVVIKKIDWEAGKISLSLKDTLADPWTTVAEQFPEGSYHTGTVARLAAFGAFVTLAPGIDGLIHISKLGKGKRINHPSDVLKEGETVEVKVDGVDREARRLSLALAEVSRAAEEEEKSVASFRQQATSSSKESMGSFGDLLKAKIEEKRLEHHHHHH | failed
